The chains are these.
B2: His-tagged mPD-1 (PD1-M5228, ACRO Biosystem) (receptor)
chain: LEVPNGPWRSLTFYPAWLTVSEGANATFTCSLSNWSEDLMLNWNRLSPSNQTEKQAAFCNGLSQPVQDARFQIIQLPNRHDFHMNILDTRRNDSGIYLCGAISLHPKAKIEESPGAELVVTERILETSTRYPSPSPKPEGRFQGM

Test [1] concerns the target B2. The experiment in a line: SPR; pH 6.0. For orientation: Surface plasmon resonance follows binding to a sensor surface in real time, without labels.
Test [2] deals with T1, hPD-1 (PD-1-H5221, ACRO Biosystems) (human, UniProt Q15116 25-170). The experiment in a line: SPR; pH 7.4.
T1 sequence (Q15116 25-170): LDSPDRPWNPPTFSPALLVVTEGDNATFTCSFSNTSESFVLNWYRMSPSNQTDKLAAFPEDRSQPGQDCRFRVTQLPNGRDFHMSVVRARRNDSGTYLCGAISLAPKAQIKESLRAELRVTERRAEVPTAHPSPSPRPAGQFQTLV
Test [3] addresses B2. The experiment in a line: SPR; pH 7.4.
The target of test [4] is T1, hPD-1 (PD-1-H5221, ACRO Biosystems). The experiment in a line: SPR; pH 6.0.
The target of test [5] is B2. The experiment in a line: SPR; pH 6.0.
For test [6], the target named is T1, hPD-1 (PD-1-H5221, ACRO Biosystems). The test is described as follows: SPR; pH 7.4. This is another data set of the same source.
In test [7] the target is B2. The test is described as follows: SPR; pH 7.4.
The target in test [8] is RMP1-14. The test is described as follows: SPR; pH 6.0.
The target of test [9] is RMP1-14. The test is described as follows: SPR; pH 7.4.

By Kd is commonly meant the constant that tells how readily two partners part at equilibrium. One may read the koff as the rate constant with which the complex falls apart. High values mean a short-lived complex, low ones a long-lived complex.

B1: GNUV201 (antibody, V domains shown)
VH: QVQLVQSGAEVKKPGASVKVSCKASGYTFTGYWMHWVRQAPGQGLEWIGMIHPNSDTTTYNEKFKNRVTMTRDTSISTAYMELSRLRSDDTAVYYCAGTDQAAWFAFWGQGTTVTVSS
VL: DIVMTQTPLSLSVTPGQPASISCRSSQNIVHSQGDTYLEWYLQKPGQSPQLLIYKVSKRFSGVPDRFSGSGSGTDFTLKISRVEAEDVGVYYCFQGSHVPWTFGGGTKVEIK
With B1, the Kd was 0.18 nM in test [1], 0.41 nM in test [2] and 0.38 nM in [3]. Also, the koff in [4] stood at 3e-05 s⁻¹; in test [5], 5e-05 s⁻¹; in [6], 6e-05 s⁻¹; in test [7], 9e-05 s⁻¹.

Turning to B2, in the test with RMP1-14 [8], the Kd is 2.88 nM and the koff was determined as 0.00025 s⁻¹. In addition, in the test with RMP1-14 [9], the Kd is 2.43 nM and the koff turned out to be 0.00028 s⁻¹.

The values are drawn from publication PMC11088064 (2024).
